Tests used:
Test in all cases: IEDB peptide-MHC binding, purified MHC/competitive/radioactivity; filed as Kd, often an IC50 or EC50 that approximates it; ≥ and ≤ were set here for values at or beyond the usual limits of such assays
[1] = target: HLA-A*02:02
[2] = target: HLA-A*02:03
[3] = target: HLA-A*02:06
[4] = target: HLA-A*03:01
[5] = target: HLA-A*11:01
[6] = target: HLA-A*31:01
[7] = target: HLA-A*33:01
[8] = target: HLA-A*68:01
[9] = source organism: Vaccinia virus WR
[10] = source organism: SARS coronavirus Tor2
[11] = source organism: Dengue virus 4 Philippines/H241/1956
[12] = source organism: Dengue virus 1 Brazil/97-11/1997
[13] = source organism: Dengue virus 3 Martinique/1243/1999
[14] = source organism: Lassa virus Josiah
[15] = source organism: Mammarenavirus juninense
[16] = source organism: Lymphocytic choriomeningitis virus (strain Armstrong)

Row | Sequence | Kd [1, 9] [nM] | Kd [2, 9] [nM] | Kd [3, 9] [nM] | other results
1 | AATKRYPGVM | ≥ 20100 | ≥ 47900 | ≥ 46900 | 
2 | AIAACAMLLV |  |  |  | Kd [1, 10]: 5.9 nM; Kd [2, 10]: 31.6 nM; Kd [3, 10]: 77.8 nM
3 | CLKNEGVSGL | 127 | 25.1 | 14100 | 
4 | DVDIPTFNSL | 1810 | 1030 | 9710 | 
5 | EIDVSEVKTL | 4950 | 2240 | ≥ 56000 | 
6 | ELMMTTIGIV |  |  |  | Kd ([2]; source organism: Dengue virus 2 Peru/IQT2913/1996): 2.02 nM
7 | EVMPEKRNVV | ≥ 20200 | 2620 | 12100 | 
8 | FANVISKIYT | 7790 | 5310 | 1660 | 
9 | FMAYMIGQT |  |  |  | Kd [2, 11]: 6.07 nM
10 | FMEEEIKAEM | 1030 | 3070 | 865 | 
11 | FMRFFTLGSI |  |  |  | Kd [1, 10]: 24.2 nM; Kd [2, 10]: 0.76 nM; Kd [3, 10]: 195 nM
12 | FQFICNLLLL |  |  |  | Kd [1, 10]: 7.94 nM; Kd [2, 10]: 62 nM; Kd [3, 10]: 0.87 nM
13 | GALDVSASV |  |  |  | Kd [1, 10]: 0.718 nM; Kd [2, 10]: 2.34 nM; Kd [3, 10]: 2.27 nM
14 | GIADIRDKYM | 0.693 | 48.2 | 1780 | 
15 | GIYNCCESNI | 68.3 | 140 | 290 | 
16 | GMAMTTVLSI |  |  |  | Kd [2, 11]: 6.52 nM
17 | GVLIAGIIL | 5240 | 1040 | 951 | 
18 | HLTENNLYI | 114 | 14400 | 1810 | 
19 | IASILSLETV | 234 | 92.8 | 47.3 | 
20 | IAVASGLLWV |  |  |  | Kd [3, 11]: 10.6 nM
21 | ILYYGANGST | 341 | 39.3 | 1840 | 
22 | IMQVFFGYFA |  |  |  | Kd [1, 10]: 590 nM; Kd [2, 10]: 1570 nM; Kd [3, 10]: 51.1 nM
23 | IMSIGFEARI | 703 | 1500 | 1600 | 
24 | IMSMMNITRL | 61.8 | 106 | 585 | 
25 | KLFTIAMWLL |  |  |  | Kd [1, 10]: 8.53 nM; Kd [2, 10]: 709 nM; Kd [3, 10]: 262 nM
26 | KLKVDSDSGL | 74.6 | 55.8 | ≥ 10000 | 

Row | Sequence | Kd [1, 9] [nM] | Kd [2, 9] [nM] | Kd [3, 9] [nM] | other results
27 | KLYIALCKVT | 7110 | 625 | 6360 | 
28 | KTPVIVVPVI | 9090 | 6200 | 1890 | 
29 | LAELLEMKYA | 999 | 1040 | 2450 | 
30 | LATLNTLIT | 1160 | 1550 | 14200 | 
31 | LIQYRQQLEL | ≥ 32800 | 19500 | ≥ 52600 | 
32 | LLKNDVPLA |  |  |  | Kd [2, 12]: 8.25 nM
33 | LLLGVGLAMA |  |  |  | Kd [2, 13]: 2.33 nM; Kd [3, 13]: 3.81 nM
34 | LLVAHYAII |  |  |  | Kd ([2]; source organism: Dengue virus 2 Jamaica/1409/1983): 27.3 nM
35 | LMSDNPKAST | 8880 | 938 | ≥ 47700 | 
36 | LTQIFEVYWY |  |  |  | Kd [4, 9]: 990 nM; Kd [5, 9]: 348 nM; Kd [6, 9]: 934 nM; Kd [7, 9]: 1260 nM; Kd [8, 9]: 936 nM
37 | LVITYCLVT | 6980 | 3250 | 8000 | 
38 | MLQKEYMER |  |  |  | Kd [4, 14]: 11000 nM; Kd [5, 14]: 1360 nM; Kd [6, 14]: 100 nM; Kd [7, 14]: 193 nM; Kd [8, 14]: 33.3 nM
39 | MMVILPDKI | 69.2 | 16.3 | 909 | 
40 | MRYTCLNSEK |  |  |  | Kd [4, 15]: 283 nM; Kd [5, 15]: ≥ 49100 nM; Kd [6, 15]: 5030 nM; Kd [7, 15]: 6780 nM; Kd [8, 15]: 10100 nM
41 | NITLKIIETY |  |  |  | Kd [4, 9]: ≥ 70100 nM; Kd [5, 9]: 414 nM; Kd [6, 9]: 1210 nM; Kd [7, 9]: ≥ 20700 nM; Kd [8, 9]: 444 nM
42 | NITTLLNETA | 218 | 106 | 1130 | 
43 | NIVTDLENRL | 261 | 17600 | 1550 | 
44 | NLFSKNILKY |  |  |  | Kd [4, 9]: 656 nM; Kd [5, 9]: 16300 nM; Kd [6, 9]: ≥ 70000 nM; Kd [7, 9]: ≥ 70000 nM; Kd [8, 9]: 8770 nM
45 | NMDKVSAQNI | 8020 | 16800 | ≥ 69800 | 
46 | NSCSIGNVTR |  |  |  | Kd [4, 9]: ≥ 70100 nM; Kd [5, 9]: 890 nM; Kd [6, 9]: 34.1 nM; Kd [7, 9]: 16.1 nM; Kd [8, 9]: 6.73 nM
47 | NSLILLECFV |  |  |  | Kd [1, 16]: 1.21 nM; Kd [2, 16]: 46.6 nM; Kd [3, 16]: 4.17 nM
48 | PASISSVLT | 1380 | 1360 | 1490 | 
49 | PQDNQLAYV |  |  |  | Kd [3, 12]: 166 nM
50 | PTILATLNTL | 374 | 130 | 771 | 
51 | QFKQDAKYSH |  |  |  | Kd [4, 14]: ≥ 70000 nM; Kd [5, 14]: ≥ 69700 nM; Kd [6, 14]: 18200 nM; Kd [7, 14]: 10600 nM; Kd [8, 14]: ≥ 70100 nM
